# Laboratory results reported in the supplement of paper PMC9732359.
# ± gives the uncertainty stated by the source.
# Experiment: protein stability index of a GFP-peptide fusion (yeast GPS) (PSI 1-4); higher = more stable; sorted into four equal gates, so the index is relative within each strain
# Method in brief: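 The protein stability index combines read frequencies across sorting gates, each weighted by its gate number and then summed. To obtain those frequencies, a pooled yeast library of GFP fusions to tiled 17-residue yeast protein peptides, on a plasmid also expressing Cherry, was grown to mid-log phase in leucine-free medium. The cells were sorted into four equal gates by GFP/Cherry ratio before plasmid amplification by PCR and Illumina sequencing.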
Sequence,protein stability index (doa10∆),protein stability index (pdr5∆),protein stability index (san1∆),protein stability index (ubr1∆)
LKPEIEKLTSKSLDEQL [LRP1],3.22 ± 0.083,3.26 ± 0.07,2.85 ± 0.077,2.88 ± 0.063
LGRLNKLRKIAISKKNK [LIN1],2 ± 0.083,1.74 ± 0.096,1.39 ± 0.23,1.47 ± 0.072
MFRNNYDGDTVTFSPTG [PRE5],2.41 ± 0.12,2.84 ± 0.096,2.52 ± 0.11,3.18 ± 0.073
TEYFENKQSVSNLSPDL [DSN1],3.48 ± 0.13,3.4 ± 0.1,3.34 ± 0.089,3.58 ± 0.058
HGAFMDIIWLQRDLGLY [RRP6],1.95 ± 0.047,1.49 ± 0.052,1.23 ± 0.069,1.46 ± 0.032
VGPSEQNFAEEDDSSNS [REC8],2.56 ± 0.15,2.62 ± 0.11,,
FLEKEKQLTLLRSKLFQ [SMC4],2.46 ± 0.094,1.99 ± 0.067,1.86 ± 0.12,2.56 ± 0.043
YEYGAVSVLLISKDCSA [BRR2],2.12 ± 0.047,1.97 ± 0.043,1.91 ± 0.081,1.81 ± 0.041
RREFKQYSLERNSPFWW [PRP8],3.06 ± 0.12,3.64 ± 0.12,3.1 ± 0.12,3.19 ± 0.14
LLNVSVNITKFSKFERS [SKI6],2.32 ± 0.075,2.49 ± 0.049,2.7 ± 0.06,2.44 ± 0.039
VASLVLARGHRVEKIPE [RPL4A],,3.4 ± 0.24,,
LPSGRQDGVLLVALSNE [FAS2],2.4 ± 0.087,2.52 ± 0.097,2.44 ± 0.091,1.91 ± 0.13
QNPKLFQTIFSKQDLIH [SIN4],2.43 ± 0.058,2.02 ± 0.046,2.02 ± 0.085,2.02 ± 0.051
LEKCEAEFKKRKIEAET [YCS4],2.79 ± 0.14,3.17 ± 0.084,3.3 ± 0.21,2.98 ± 0.14
KIKPYVRSFSKALDELK [LRP1],2.52 ± 0.04,2.95 ± 0.037,2.35 ± 0.047,2.68 ± 0.027
AGIVPVSANTPKSLNSN [SWI1],3.07 ± 0.059,3.04 ± 0.066,3.04 ± 0.048,3.22 ± 0.043
TYPAGFMDVITLDATNE [RPS4A],2.71 ± 0.085,3.11 ± 0.086,3.11 ± 0.062,2.95 ± 0.063
MAQNKTHIPQTNLKNHP [YLR018C/POM34],3.12 ± 0.082,2.98 ± 0.057,2.75 ± 0.058,2.85 ± 0.04
EEEESILIAMQPEDLEP [RPB2],,,2.33 ± 0.13,
LFIGLFTRPLFVLLEIE [YCS4],1.82 ± 0.092,1.98 ± 0.083,2.11 ± 0.15,1.61 ± 0.093
QQQQQQQQGQIPQSQQV [SNF5],2.231 ± 0.016,2.63 ± 0.018,2.257 ± 0.02,2.511 ± 0.02
KLSKEERAARVAAKIAA [RPL5],2.54 ± 0.13,2.93 ± 0.079,2.49 ± 0.2,2.52 ± 0.078
KELENNLERLRSDLQSK [YIL149C/MLP2],3.17 ± 0.062,3.3 ± 0.094,3.05 ± 0.068,3.2 ± 0.053
HLRSNILKDLIYRGVLN [SMC1],1.74 ± 0.059,1.78 ± 0.085,1.8 ± 0.14,1.74 ± 0.056
MANIPERIINVGVIGPL [SNU114],2.18 ± 0.28,2.79 ± 0.16,,3.07 ± 0.077
TINLDRFMKGRRSKQLI [RPC82],2.09 ± 0.1,2.64 ± 0.078,1.79 ± 0.17,2.74 ± 0.078
IEAGRAALYKEVYNVIA [RPO21],2.36 ± 0.085,1.88 ± 0.096,2.41 ± 0.13,2.82 ± 0.11
DAFRVHICGICGLMTVI [RPB2],1.33 ± 0.084,1.43 ± 0.095,1.34 ± 0.16,1.43 ± 0.062
